Each block holds one substance with its values, some of them ahead of it.
Experiments:
Human TNFα (human) [1] = molecular target: Human TNFα (human) (UniProt P01375); test: Binding ELISA to hTNFα
Macaque TNFα (macaque) [2] = molecular target: Macaque TNFα (macaque) (UniProt P79337); test: ELISA, macaque TNFα, relative to HUMIRA
FcγRIIIB (CD16b) [3] = molecular target: FcγRIIIB (CD16b) (UniProt O75015); test: SPR, against HUMIRA
FcγRI (CD64) [4] = molecular target: FcγRI (CD64) (UniProt P12314); test: SPR, heterogenous ligand model, Mean KD2
FcγRIIIA (CD16a, F167) [5] = molecular target: FcγRIIIA (CD16a, F167) (UniProt P08637); test: SPR, heterogenous ligand model, Mean KD2
FcγRIIIA (CD16a, V167) [6] = molecular target: FcγRIIIA (CD16a, V167) (UniProt P08637); test: SPR, heterogenous ligand model, Mean KD2
Human TNFα (human) [7] = molecular target: Human TNFα (human) (UniProt P01375); test: ELISA, human TNFα, relative to HUMIRA
FcγRI (CD64) [8] = molecular target: FcγRI (CD64) (UniProt P12314); test: SPR, heterogenous ligand model, Mean KD1
FcγRIIIA (CD16a, F167) [9] = molecular target: FcγRIIIA (CD16a, F167) (UniProt P08637); test: SPR, heterogenous ligand model, Mean KD1
FcγRIIIA (CD16a, V167) [10] = molecular target: FcγRIIIA (CD16a, V167) (UniProt P08637); test: SPR, heterogenous ligand model, Mean KD1
FcγRIIA (CD32a, H167) [11] = molecular target: FcγRIIA (CD32a, H167) (UniProt P12318); test: SPR, steady state model, against HUMIRA
FcRn (FCGRT&B2M) [12] = molecular target: FcRn (FCGRT&B2M) (UniProt P55899); test: SPR, steady state model, against HUMIRA
FcγRIIB (CD32b) [13] = molecular target: FcγRIIB (CD32b) (UniProt P31994); test: SPR, steady state model, against HUMIRA
Human TNFα (human) [14] = molecular target: Human TNFα (human) (UniProt P01375); test: SPR, human TNFα, relative to HUMIRA
Human TNFα (human) [15] = molecular target: Human TNFα (human) (UniProt P01375); test: cell-based or functional assay
Macaque TNFα (macaque) [16] = molecular target: Macaque TNFα (macaque) (UniProt P79337); test: SPR, macaque TNFα, relative to HUMIRA
FcγRIIIB (CD16b) [17] = molecular target: FcγRIIIB (CD16b) (UniProt O75015); test: SPR, Mean (one KD printed)
FcγRI (CD64) [18] = molecular target: FcγRI (CD64) (UniProt P12314); test: SPR, heterogenous ligand model, KD1, against HUMIRA
FcγRIIIA (CD16a, F167) [19] = molecular target: FcγRIIIA (CD16a, F167) (UniProt P08637); test: as above
FcγRIIIA (CD16a, V167) [20] = molecular target: FcγRIIIA (CD16a, V167) (UniProt P08637); test: as above
FcγRIIA (CD32a, H167) [21] = molecular target: FcγRIIA (CD32a, H167) (UniProt P12318); test: SPR, steady state model, Mean
FcRn (FCGRT&B2M) [22] = molecular target: FcRn (FCGRT&B2M) (UniProt P55899); test: SPR, steady state model, Mean
FcγRIIB (CD32b) [23] = molecular target: FcγRIIB (CD32b) (UniProt P31994); test: SPR, steady state model, Mean
FcγRI (CD64) [24] = molecular target: FcγRI (CD64) (UniProt P12314); test: SPR, heterogenous ligand model, KD2, against HUMIRA
FcγRIIIA (CD16a, F167) [25] = molecular target: FcγRIIIA (CD16a, F167) (UniProt P08637); test: as above
FcγRIIIA (CD16a, V167) [26] = molecular target: FcγRIIIA (CD16a, V167) (UniProt P08637); test: as above
Macaque TNFα (macaque) [27] = molecular target: Macaque TNFα (macaque) (UniProt P79337); test: SPR, macaque TNFα, reference
Macaque TNFα (macaque) [28] = molecular target: Macaque TNFα (macaque) (UniProt P79337); test: ELISA, macaque TNFα, reference

Normalized EC50 vs HUMIRA (Human TNFα (human) [1]): 121%
Substance: Adalimumab K84N (A-84S) (antibody)

Normalized EC50 vs HUMIRA (Human TNFα (human) [1]): 116%
Rel. binding (Macaque TNFα (macaque) [2]): 99%
Fold change (KD(HUMIRA)/KD(A-8486S)) (FcγRIIIB (CD16b) [3]): 10.9 fold
Rel. binding affinity (KD(HUMIRA)/KD(A-8486S)*100) (FcγRIIIB (CD16b) [3]): 1090%
Kd (FcγRI (CD64) [4]): 6.27 nM
Kd (FcγRIIIA (CD16a, F167) [5]): 123 nM
Kd (FcγRIIIA (CD16a, V167) [6]): 27.4 nM
Rel. binding (Human TNFα (human) [7]): 86%
Kd (FcγRI (CD64) [8]): 0.326 nM
Kd (FcγRIIIA (CD16a, F167) [9]): 12.2 nM
Kd (FcγRIIIA (CD16a, V167) [10]): 2.69 nM
Fold change (KD(HUMIRA)/KD(A-8486S)) (FcγRIIA (CD32a, H167) [11]): 0.9 fold
Rel. binding affinity (KD(HUMIRA)/KD(A-8486S)*100) (FcγRIIA (CD32a, H167) [11]): 92%
Fold change (KD(HUMIRA)/KD(A-8486S)) (FcRn (FCGRT&B2M) [12]): 0.7 fold
Rel. binding affinity (KD(HUMIRA)/KD(A-8486S)*100) (FcRn (FCGRT&B2M) [12]): 71%
Fold change (KD(HUMIRA)/KD(A-8486S)) (FcγRIIB (CD32b) [13]): 1.4 fold
Rel. binding affinity (KD(HUMIRA)/KD(A-8486S)*100) (FcγRIIB (CD32b) [13]): 138%
Rel. binding affinity (Human TNFα (human) [14]): 84%
L929 apoptosis, Rel. IC50 (Human TNFα (human) [15]): 89%
Rel. binding affinity (Macaque TNFα (macaque) [16]): 77%
Kd (FcγRIIIB (CD16b) [17]): 152 nM
Fold change (KD(HUMIRA)/KD(A-8486S)) (FcγRI (CD64) [18]): 1.7 fold
Rel. binding affinity (KD(HUMIRA)/KD(A-8486S)*100) (FcγRI (CD64) [18]): 174%
Fold change (KD(HUMIRA)/KD(A-8486S)) (FcγRIIIA (CD16a, F167) [19]): 21.3 fold
Rel. binding affinity (KD(HUMIRA)/KD(A-8486S)*100) (FcγRIIIA (CD16a, F167) [19]): 2130%
Fold change (KD(HUMIRA)/KD(A-8486S)) (FcγRIIIA (CD16a, V167) [20]): 29.8 fold
Rel. binding affinity (KD(HUMIRA)/KD(A-8486S)*100) (FcγRIIIA (CD16a, V167) [20]): 2980%
Kd (FcγRIIA (CD32a, H167) [21]): 785 nM
Kd (FcRn (FCGRT&B2M) [22]): 1100 nM
Kd (FcγRIIB (CD32b) [23]): 2200 nM
Fold change (KD(HUMIRA)/KD(A-8486S)) (FcγRI (CD64) [24]): 1.1 fold
Rel. binding affinity (KD(HUMIRA)/KD(A-8486S)*100) (FcγRI (CD64) [24]): 109%
Fold change (KD(HUMIRA)/KD(A-8486S)) (FcγRIIIA (CD16a, F167) [25]): 9 fold
Rel. binding affinity (KD(HUMIRA)/KD(A-8486S)*100) (FcγRIIIA (CD16a, F167) [25]): 902%
Fold change (KD(HUMIRA)/KD(A-8486S)) (FcγRIIIA (CD16a, V167) [26]): 2.8 fold
Rel. binding affinity (KD(HUMIRA)/KD(A-8486S)*100) (FcγRIIIA (CD16a, V167) [26]): 280%
Substance: Adalimumab K84N-D86N (A-8486S) (antibody)

Kd (FcγRI (CD64) [4]): 6.86 nM
Kd (FcγRIIIA (CD16a, F167) [5]): 1110 nM
Kd (FcγRIIIA (CD16a, V167) [6]): 76.6 nM
Rel. binding affinity (Macaque TNFα (macaque) [27]): 100%
Kd (FcγRI (CD64) [8]): 0.566 nM
Kd (FcγRIIIA (CD16a, F167) [9]): 260 nM
Kd (FcγRIIIA (CD16a, V167) [10]): 80.1 nM
Rel. binding (Macaque TNFα (macaque) [28]): 100%
Kd (FcγRIIIB (CD16b) [17]): 1650 nM
Kd (FcγRIIA (CD32a, H167) [21]): 723 nM
Kd (FcRn (FCGRT&B2M) [22]): 778 nM
Kd (FcγRIIB (CD32b) [23]): 3040 nM
Substance: HUMIRA (adalimumab) (antibody)
